How the values were obtained:
O=C(CO)c1ccccc1 = assay: reduction of 2-hydroxyacetophenone with NADPH, apparent kinetic parameters by Lineweaver-Burk plots; format: biochemical, Candida parapsilosis
Method: (§1) Since environmental pH value can have an influence on the stereochemistry of enzymatic reactions (Secundo and Phillips, Enzyme Microb. Technol., 19, 487-492 (1996)), the effect of the reaction pH on the activities of SCRs catalyzing 2-hydroxyacetophenone reduction was also investigated. […] Subsequently, the enzymes were evaluated under their individual optimal pH, and apparent kinetic parameters were further measured by double reciprocal Lineweaver-Burk plots at various 2-hydroxyacetophenone concentrations with fixed NADPH concentrations. […] The values are the average of three independent experiments.
(§2) Enzyme Assays. Carbonyl reductase activity was measured by a continuous spectrophotometric assay using 2-hydroxyacetophenone as a substrate. One unit of enzyme activity was defined as the amount of enzyme catalyzing the oxidation of 1 μmol NAD(P)H per min under the assay conditions. The standard assay mixture for the enzyme activity comprised of 0.1 M potassium phosphate buffer (pH 6.5), 0.3 mM NAD(P)H, 0.7 mM 2-hydroxyacetophenone and appropriate enzyme in a total volume of 100 μl. The decrease in the amount of the coenzyme was measured spectrophotometrically at 340 nm (extinction coefficient [ε]=6.22 mM^−1 cm^−1). Protein concentration was determined using Bradford reagents (Bio-Rad) with bovine serum albumin as a standard. The pH dependence of enzyme activity was determined over a pH range of 4.0 to 8.5 using the following buffers: 0.1 M acetate (pH 4.0 to 6.0), 0.1 M sodium phosphate (pH 6.0 to 8.0) and 0.1 M Tris-HCl (pH 8.0 to 8.5).

[1] = Carbonyl reductase activity and kinetic parameters, continuous spectrophotometric assay (NAD(P)H decrease at 340 nm); format: biochemical; conditions: reduction of 2-hydroxyacetophenone
Method: Catalytic Properties of Recombinant SCRs. The enzymatic activities of SCR1, SCR2, and SCR3 were investigated for reduction of 2-hydroxyacetophenone.
as §1, §2

[2] = Substrate specificity of SCRs with NADPH as cofactor; format: biochemical
From the text: The substrate specificity of SCRs was investigated under the same conditions as described above. Various carbonyl compounds including aryl ketones, aliphatic ketones, α- and β-ketone esters were used as the substrates with the cofactor of NADPH.

[3] = other: pH 6.0 (optimum pH), NADPH as cofactor at fixed concentration, average of three independent experiments
[4] = other: pH 4.5 (optimum pH), NADPH as cofactor
[5] = other: pH 5.5 (optimum pH), NADPH as cofactor at fixed concentration, average of three independent experiments
[6] = other: pH 5.0 (optimum pH), NADPH as cofactor at fixed concentration, average of three independent experiments
[7] = NADPH as cofactor, at optimum pH of each enzyme
[8] = compared with the other enzyme (SCR1 vs SCR3)

Candida parapsilosis stereospecific carbonyl reductase SCR3, SEQ ID NO:2 (GenBank FJ939564), recombinant with C-terminal His6 tag (Lodderomyces parapsilosis CDC317)
Km (O=C(CO)c1ccccc1; [3]): 4.68 mM | Vmax (O=C(CO)c1ccccc1; [3]): 32.3 µmol/min/mg

Candida parapsilosis CPADH, SEQ ID NO:1 (GenBank DQ675534) (Lodderomyces parapsilosis CDC317)
Km (O=C(CO)c1ccccc1; [4]): 5.83 mM | Vmax (O=C(CO)c1ccccc1; [4]): 18.3 µmol/min/mg

Candida parapsilosis stereospecific carbonyl reductase SCR2, SEQ ID NO:3 (GenBank FJ939563), recombinant with C-terminal His6 tag (Lodderomyces parapsilosis CDC317)
Km (O=C(CO)c1ccccc1; [5]): 4.81 mM | Vmax (O=C(CO)c1ccccc1; [5]): 8.83 µmol/min/mg

Candida parapsilosis stereospecific carbonyl reductase SCR1, SEQ ID NO:4 (GenBank FJ939565), recombinant with C-terminal His6 tag (Lodderomyces parapsilosis CDC317)
Km (O=C(CO)c1ccccc1; [6]): 9.83 mM | Vmax (O=C(CO)c1ccccc1; [6]): 42 µmol/min/mg

B1: SCR1: stereospecific carbonyl reductase from C. parapsilosis, GenBank FJ939565, recombinant with C-terminal His6 tag (protein, listed as Candida parapsilosis)
chain: MSKDETISYCNDQLGPLPTTAPKVSDNVTDLFSFKGKVVSVTGSSGGIGWAVAEGFAQAGADVAIWYHSHNADEKAKYLQEKYGVKSIAYGCNIGVAEEVQKTVDQIESDFGKIDVFVANAGIPWTDGPEIDVQDLSKWTKIIDTDLNSVYYCAHAIGPIFRKQGKGSLVITASMSATIVNVPQLQAAYNVAKAGVKHLSKSLAVEWAPFARVNSVSPGYISTNLTTFANPDLQKKWVQLTPLGREGHPKELVGAYLYLASDAATFTTGCDLAVDGGYTVP
modifications: C-terminal His6 tag
pH (optimum pH for each enzyme) ([1]; NADPH as cofactor): 5.0 | Specific activity [1, 7]: 5.16 μmol/min mg protein | activity for reduction of ethyl 4-chloro-3-oxobutyrate ([2]; among the tested β-ketoesters): highest activity | activity to m-Cl-2-hydroxyacetophenone [2, 8]: higher activity

B2: SCR3: stereospecific carbonyl reductase from C. parapsilosis, GenBank FJ939564, recombinant with C-terminal His6 tag (protein, listed as Candida parapsilosis)
chain: MGEIESYCNKELGPLPTKAPTLAKNVLDLFSLKGKVASVTGSSGGIGWAVAEAYAQAGADVAIWYNSHPADEKAEHLQKTYGVRSKAYKCNISDPKSVEETISQQEKDFGTIDVFVANAGIPWADGPVIDLENYDAWNKLINTDINGVFYCAHSIGKIFKKNGKGSLIITASLAGSVVTIPQQQTPYNTAKAACLHLAKSLAVEWAPFARVNTVSPGYFETEINGFADEDMREKWYQLTPLGRMGITEELVGGYLYFASNASTFTTGSDLIIDGGFTCP
modifications: C-terminal His6 tag
pH (optimum pH for each enzyme) ([1]; NADPH as cofactor): 6.0 | Specific activity [1, 7]: 4.23 μmol/min mg protein | specificity to p-Cl-2-hydroxyacetophenone [2, 8]: more specific

B3: SCR2: stereospecific carbonyl reductase from C. parapsilosis, GenBank FJ939563, recombinant with C-terminal His6 tag (protein, listed as Candida parapsilosis)
chain: MGEIESYCNKELGPLPTKAPTLSKNVLDLFSLKGKVASVTGSSGGIGWAVAEAYAQAGADVAIWYNSHPADEKAEHLQKTYGVRSKAYKCNISDPKSVEETISQQEKDFGTIDVFVANAGVPWTEGPEINVDNYDSWNKIINLDLNGVYYCAHTVGKIFKKNGKGSLVITSSMSGTIVNVPQLQAAYNAAKAACTHLTKSLAVEWAPFARVNCVSPGYIATEISDFVEKDMKAKWWQLTPLGREGLAQELVGAYLYLASNASTYTTGANLAVDGGYTCP
modifications: C-terminal His6 tag
pH (optimum pH for each enzyme) ([1]; NADPH as cofactor): 5.5 | Specific activity [1, 7]: 1.55 μmol/min mg protein | Specific activity ([1]; under the assay conditions): 1.55 µmol/min/mg protein

B4: CPADH: C. parapsilosis enzyme encoded by cpadh gene, GenBank DQ675534, comparison enzyme in Table 1 (protein, listed as Candida parapsilosis)
chain: MGEIESYCNKELGPLPTKAPTLSKNVLDLFSLKGKVASVTGSSGGIGWAVAEAYAQAGADVAIWYNSHPADEKAEHLQKTYGVHSKAYKCNISDPKSVEETISQQEKDFGTIDVFVANAGVTWTQGPEIDVDNYDSWNKIISVDLNGVYYCSHNIGKIFKKNGKGSLIITSSISGKIVNIPQLQAPYNTAKAACTHLAKSLAIEWAPFARVNTISPGYIDTDITDFASKDMKAKWWQLTPLGREGLTQELVGGYLYLASNASTFTTGSDVVIDGGYTCP
pH (optimum pH for each enzyme) ([1]; NADPH as cofactor): 4.5 | Specific activity [1, 7]: 2.70 μmol/min mg protein
